# Assay results reported in patent publication US20220305003A1, “METHODS OF TREATING CANCER WITH AN INHIBITOR OF ZNF827” (CHILDREN'S MEDICAL RESEARCH INSTITUTE, priority 2019, published 2022).
# B1: ss telomeric G rich oligo (ssDNA)
# DNA: TTAGGGTTAGGGTTAGGG
# Tests used:
# [1] = target: T1, ZNF827 full length (Homo sapiens, UniProt Q17R98 SEQ:1-1081); experiment: EMSA; 0.8 mM ZnCl2, 100 mM KCl, poly(dI:dC), on ice; conditions: tags: HaloTag (pHTN), expressed in HEK 293T, tag removed by HaloTEV cleavage; label: 32P (gamma)
# T1 sequence: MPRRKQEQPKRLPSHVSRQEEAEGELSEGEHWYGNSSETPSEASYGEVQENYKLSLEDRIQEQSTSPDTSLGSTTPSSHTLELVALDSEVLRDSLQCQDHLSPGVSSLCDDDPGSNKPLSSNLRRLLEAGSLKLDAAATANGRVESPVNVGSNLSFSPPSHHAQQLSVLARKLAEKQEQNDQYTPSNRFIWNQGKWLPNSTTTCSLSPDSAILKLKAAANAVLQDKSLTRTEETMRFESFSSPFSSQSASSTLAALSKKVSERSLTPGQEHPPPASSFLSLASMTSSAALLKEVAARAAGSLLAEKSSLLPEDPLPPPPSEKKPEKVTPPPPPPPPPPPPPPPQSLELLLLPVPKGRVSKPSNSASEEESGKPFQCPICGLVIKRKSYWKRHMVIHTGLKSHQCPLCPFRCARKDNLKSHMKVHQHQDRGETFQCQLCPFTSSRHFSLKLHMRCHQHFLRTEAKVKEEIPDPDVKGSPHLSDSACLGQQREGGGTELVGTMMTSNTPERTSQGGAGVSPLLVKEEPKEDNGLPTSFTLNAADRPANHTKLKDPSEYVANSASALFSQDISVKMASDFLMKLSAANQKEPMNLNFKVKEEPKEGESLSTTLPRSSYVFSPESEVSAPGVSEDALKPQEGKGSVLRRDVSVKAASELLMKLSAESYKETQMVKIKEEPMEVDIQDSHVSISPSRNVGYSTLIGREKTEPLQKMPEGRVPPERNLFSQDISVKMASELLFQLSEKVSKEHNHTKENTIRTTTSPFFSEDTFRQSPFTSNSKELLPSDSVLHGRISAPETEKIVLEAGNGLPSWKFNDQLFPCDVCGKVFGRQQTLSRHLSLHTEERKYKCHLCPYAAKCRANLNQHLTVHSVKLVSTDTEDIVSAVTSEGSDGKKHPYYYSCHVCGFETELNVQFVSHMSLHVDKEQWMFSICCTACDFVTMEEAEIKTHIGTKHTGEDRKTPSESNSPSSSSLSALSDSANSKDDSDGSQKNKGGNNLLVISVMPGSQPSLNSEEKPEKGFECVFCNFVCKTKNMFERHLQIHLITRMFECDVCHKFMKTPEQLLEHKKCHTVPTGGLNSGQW
# Method: (§1) Purified proteins were quantified using a BCA assay using the Pierce™ BCA Protein Assay Kit according to the manufacturer's instructions. Equal amounts of purified proteins were incubated in binding buffer (20 mM HEPES-KOH, pH7.9, 100 mM KCl, 0.8 mM ZnCl₂, 0.2 mM EDTA, 5% glycerol, 0.5 mM DTT and 0.5 mM PMSF) with 6.25 μg/mL poly (dI:dC) and 50 ng/μL BSA on ice for 20 minutes. ˜0.12 nM (˜2.5 fmol) γ-³²P labelled DNA oligonucleotide (see Table 3) probes were added to samples and incubated on ice for another 30 minutes. Binding reactions were loaded onto an 8% native acrylamide/bisacrylamide (19:1, Biorad) gel pre-run at 100V in 0.5× TB buffer (89 mM Tris, 89 mM boric acid) for 20 minutes. Gels were electrophoresed at 150 V for 150 minutes at 4° C., dried at 65° C. for 45 minutes, and then exposed to a Phosphor screen overnight. Gel images were obtained by scanning the screens with a Typhoon FLA9500 Imager (GE Life Sciences).
# [2] = target: T2, ZNF827 ZnF4-9 deleted (Homo sapiens); experiment: as above; conditions: tags: HaloTag (pHTN), expressed in HEK 293T, tag removed by HaloTEV cleavage; label: 32P (gamma)
# T2 chain: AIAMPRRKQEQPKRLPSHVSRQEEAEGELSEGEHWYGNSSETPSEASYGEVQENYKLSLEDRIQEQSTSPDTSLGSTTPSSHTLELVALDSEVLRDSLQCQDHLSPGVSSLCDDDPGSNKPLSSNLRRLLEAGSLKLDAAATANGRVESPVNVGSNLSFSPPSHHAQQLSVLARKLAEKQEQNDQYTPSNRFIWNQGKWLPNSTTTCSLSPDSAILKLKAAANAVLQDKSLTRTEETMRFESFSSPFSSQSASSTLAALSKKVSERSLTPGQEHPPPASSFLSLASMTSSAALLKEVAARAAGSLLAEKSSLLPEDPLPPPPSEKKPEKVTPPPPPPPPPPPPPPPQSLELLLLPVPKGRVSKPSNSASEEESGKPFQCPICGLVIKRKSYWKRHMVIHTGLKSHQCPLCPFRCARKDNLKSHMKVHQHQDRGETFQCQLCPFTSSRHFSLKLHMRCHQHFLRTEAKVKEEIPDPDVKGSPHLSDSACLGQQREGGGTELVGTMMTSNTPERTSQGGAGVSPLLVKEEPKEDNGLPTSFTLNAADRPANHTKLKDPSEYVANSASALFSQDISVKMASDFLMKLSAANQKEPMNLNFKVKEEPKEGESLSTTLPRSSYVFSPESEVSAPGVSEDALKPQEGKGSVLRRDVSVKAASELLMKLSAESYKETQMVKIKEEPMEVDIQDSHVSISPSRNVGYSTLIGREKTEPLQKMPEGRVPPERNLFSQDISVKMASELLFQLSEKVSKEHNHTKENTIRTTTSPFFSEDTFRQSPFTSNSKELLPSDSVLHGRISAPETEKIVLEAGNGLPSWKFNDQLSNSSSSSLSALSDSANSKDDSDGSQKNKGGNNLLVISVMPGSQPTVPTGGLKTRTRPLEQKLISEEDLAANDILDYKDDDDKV
# Method: as §1
binder,measurement,setting,value
B1,binding result,[1],binds
same,binding result,[2],binds
